The target of this test is T1, 6xHis-CotV (Bacillus subtilis 168, UniProt Q08309 1-128).
T1 construct: CotV, spore coat (crust) protein of Bacillus subtilis strain 168; native ORF printed as 129 residues; residues 1-125 resolved in the model; Forms a helical filament; the number of copies is not fixed; also called 6xHis-tagged CotV; CotV1; source: E. coli BL21(DE3), coexpressed with CotW from pET-DUET, Ni-NTA purified as the CotVW complex; not shown: 6xHis (within an N-terminal extension of 14 …)
T1 sequence (looked up): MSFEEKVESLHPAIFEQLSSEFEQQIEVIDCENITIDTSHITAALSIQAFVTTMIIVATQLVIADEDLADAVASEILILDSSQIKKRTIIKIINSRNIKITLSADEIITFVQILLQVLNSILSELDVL
Nature of the test: cryo-EM structure; helical reconstruction of 6xHis-tagged CotVW filaments, 3.32 Å; twist 153.09°, rise 9.52 Å, one CotV-CotW heterodimer per asymmetric unit. To be noted: both partners purified.

Usually stoichiometry N stands for the number of molecules, sites or subunits per partner or assembly.

B1: CotW (natural protein, Bacillus subtilis 168, UniProt Q08310 1-105, looked up)
chain: MSDNDKFKEELAKLPEVDPMTKMLVQNIFSKHGVTKDKMKKVSDEEKEMLLNLVKDLQAKSQALIENQKKKKEEAAAQEQKNTKPLSRREQLIEQIRQRRKNDNN
notes: CotW, spore coat (crust) protein of Bacillus subtilis strain 168; native ORF 105 residues; residues 18-98 resolved in the model; also called CotW1; CotW monomer; source: E. coli BL21(DE3), coexpressed with 6xHis-CotV from pET-DUET, co-purified on Ni-NTA as the CotVW complex; not shown: single added tyrosine, C-terminal, kept
With B1, the “stoichiometry N” value was 1.

The record behind these values is paper PMC12630357 (The Journal of Biological Chemistry, 2025).
